In this assay the target is T1, M. catarrhalis transferrin binding protein B with C-terminal flag-tag (Mcat TbpB-flag) (Moraxella catarrhalis, UniProt P0DTW7 21-706, lipidated).
T1 sequence: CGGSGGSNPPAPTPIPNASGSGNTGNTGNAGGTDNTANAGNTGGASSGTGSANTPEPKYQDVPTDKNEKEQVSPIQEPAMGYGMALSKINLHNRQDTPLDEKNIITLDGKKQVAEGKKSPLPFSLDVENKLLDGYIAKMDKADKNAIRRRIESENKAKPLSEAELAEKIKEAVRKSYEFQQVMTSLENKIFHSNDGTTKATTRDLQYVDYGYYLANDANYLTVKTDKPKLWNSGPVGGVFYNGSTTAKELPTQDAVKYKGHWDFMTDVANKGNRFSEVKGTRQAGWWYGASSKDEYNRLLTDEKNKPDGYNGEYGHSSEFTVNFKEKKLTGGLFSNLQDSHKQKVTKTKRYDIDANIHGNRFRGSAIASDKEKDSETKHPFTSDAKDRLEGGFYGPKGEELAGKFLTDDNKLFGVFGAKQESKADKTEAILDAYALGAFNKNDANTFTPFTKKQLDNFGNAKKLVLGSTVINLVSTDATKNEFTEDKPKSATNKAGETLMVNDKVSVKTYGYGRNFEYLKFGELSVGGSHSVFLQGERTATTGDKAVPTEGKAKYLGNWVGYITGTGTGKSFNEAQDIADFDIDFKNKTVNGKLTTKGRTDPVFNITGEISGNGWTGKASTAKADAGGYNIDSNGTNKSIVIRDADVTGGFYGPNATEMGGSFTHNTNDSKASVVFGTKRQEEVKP
Description: cell-based or functional assay.

B1: His-tagged E. coli Skp, purified (natural protein, UniProt P0AEU7 21-161, looked up)
chain: ADKIAIVNMGSLFQQVAQKTGVSNTLENEFKGRASELQRMETDLQAKMKKLQSMKAGSDRTKLEKDVMAQRQTFAQKAQAFEQDRARRSNEERGKLVTRIQTAVKSVANSQDIDLVVDANAVAYNSSDVKDITADVLKQVK
In the case of B1, the “protection of urea-unfolded purified TbpB from proteinase K with empty liposomes, Skp added against SurA added” value turned out to be 2 fold.

The record behind these values is article doi:10.1101/2021.08.22.457263, “Reconstitution of surface lipoprotein translocation reveals Slam as an outer membrane translocon in Gram-negative bacteria” (bioRxiv, 2021).
